{
  "source": "the DeepSol protein solubility set",
  "data": [
    {"experiment": "soluble on expression in E. coli; label from the status in PepcDB or PDB records", "values": [
      {"sequence": "MLFWLMASLWPMKAGVVYADQTEGAITFVSDEKIEGWATAPGIGNGQGNSIRYFMIRIQPKEQSGTAVSYRAEAVEAPADRNGEKKYTFSLDMRGKWPSAPGTMVTYQITVDAYRVLGNGKEDVYFSFPQTPYQYTRQTEASTAKLDFSLSFSQPEYAKPPNGDAQGRLDVTLVPQGAVSGIIRPPIDVVFVMDVSGSMTAMKLQSAKSALQAAVNYFKSNYNQNDRFALIPFSDGVREASVVPFGKYSNVASQLDAILNTGNSLTAGGGTNYSAALSLAKSYFTDPTRKKYIIFLTDGMPTVLNAVDTITYREVKQNFWGGYSYTGNRVTDSLSITYELYSDGRTAGIRFTDNKGYSRRFYSDGQDYVNGWRVSWDNGYSFTYSSIEGKIRADATAVAKTLGMNNITLYSIGFGDNDEVDMDYLRSLSATAGGEARQGTTQNLTALFQQFSQLATTPAITGTIRIPLSSFGGNVAVAENGQVWLDENKQNAYISFSIPYQVGQGTPAPVTIPIPVSFKAKGTYTFTAELTYRDVYGQLQPAVTKTVTVTVKDEAPPSFTGTVKLQGLTNDVTGLIKRGATDGDDNRFRATYSLSLVGYVGNATGTISNVSIVQELPDGISVVPDGKVTTYVENGKRYAKWSFTNQMFDYSQLNKLTLSAQWVMQADFAMNSVQLPPASVTFTDSRYGAKTSTLVPPAERIGMTVRLDDFPNFYYEGNGKGTITKHKFSALSDDIVGQANPNSYGLLPLPVKALEYDPNDDGVLLVTYSNGQTGIGVH", "soluble on expression in E. coli": "not soluble"},
      {"sequence": "MGSDKIHHHHHHMNNMEIWVVDDDRDYCELIVEMLQDEFKVSPFYGAADFRVALQTQKPDLLLMDINLPDTDGITLCRELQASNQEVAVLFVSGMNTLEERLKAYEVNAVDFIAKPFELKELLAKVHSVAHYVMKQRELIQAESVSRNMAFQSMTESSQYGCVLQFFRQCFLCNDHQTLADAFFDLMQQLNLNTCLEIRGENVEYFAPRHAAISPIESNILELLDKHGRLYDFGCRTICNDKHVSFLIKNMPINDEVLYGRLRDIIAVVVEGLEARVLDISRQQTLTQVFLDIESLIGDINVATLEHDEKFSAALINMTTEIRGSFHVLDMTIEQEDYFTALIERNLKEVKSASEAFTRLQSALGKVMDVLGGSVS", "soluble on expression in E. coli": "not soluble"},
      {"sequence": "MGSDKIHHHHHHMLLRKAFKFEIRPNGEQIRKIKQFCGCSRFVFNRALAWQNEQYEQDNNQKFSYSKLTSLLPQWKKELIWLKECHSQVLQQSLKDLESAFKNFFQQRADFPKFKKKGIKESFRFPQGCKIQPQNDRLYLPKIGWVRYRNSREIVGEVKNVTVSQKCGRFFVSIQTEFEHEIPMHKGGEIGIDMGIARFATLSNGEFFEPINAFKTYKGKLAKLQKQLKNKVKFSKNWQKLKEKIGKLHHKIANCRKDFLHKISTQISKNHAMIYVEDLQVANMSKSAKGTVEAHGKNVKQKSGLNRSIRDQSWFEFRRQLDYKTQWLGGFLVAVPAQNTSRTCPCCGHIAKENRETQAHFECVECGYTENADVVGAMNVLTRGQAIVQA", "soluble on expression in E. coli": "not soluble"},
      {"sequence": "AHHHHHHGSVVKRTMTKKFLEEAFAGESMAHMRYLIFAEKAEQEGFPNIAKLFRAIAYAEFVHAKNHFIALGKLGKTPENLQMGIEGETFEVEEMYPVYNKAAEFQGEKEAVRTTHYALEAEKIHAELYRKAKEKAEKGEDIEIKKVYICPICGYTAVDEAPEYCPVCGAPKEKFVVFE", "soluble on expression in E. coli": "soluble"},
      {"sequence": "IGDWGYSVSANLTTISNKVKSLVQDGYSIIAGDKSQSYTMAGYPIGYFYGYKVAGVYQNQAEIDASPVNTLATVTPGDLKFADVNGDGKITPDDRTKIGDPTPDVTYGISLGLSYKNWELSMEMMGQGGNQIYRTWDNYNWAQFNYMEQRLDRWHGEGTSNTQPLLNTKHAINSENSEYFIEDGSFFRIRNLQLAYSFDKTLLSKIRMQALKVYVNIQNLKTWKHNTGYTPEIGGSAIAFGVDNGTYPVPAVYTFGINLTF", "soluble on expression in E. coli": "not soluble"},
      {"sequence": "GMSSSGTSITCEVGLQLIVPDRAPVPLVARLDYSVDDPYAIRAAFHVGDDEPVEWIFARELLTVGIIRETGEGDVRIWPSQDGKERMVNIALSSPFGQARFHAQVAPLSEFLHRTYELVPAGQESDYIDIDAEIAEHLS", "soluble on expression in E. coli": "soluble"},
      {"sequence": "MAHHHHHHMPPKGFKSNVSPEEAIAARKEKVELLSQQCAAVEKMLSICTDQGLRLNAEIAELERRIAETEVLTEQASRDLDVTVKIVTSYATSNLDQLQQRRLNMEKTAHEAEAENEALRAKIAELTGRREAEIEQWEARVEEQQALMNQKALDFGMQLKETLARRYATV", "soluble on expression in E. coli": "not soluble"},
      {"sequence": "GPLGSKVDLFDFELPERLIAQVPLEQRDASRLMVLDKHTGELTDSSFKHIISFFNEGDCLVLNNTRVLPARLFGTKEDTGAKVELLLLKQETGDKWETLAKPAKRVKKGTVVTFGDGRLKAICTEELEHGGRKMEFQYDGIFYEVLESLGEMPLPPYIKEQLDDKERYQTVYSKEIGSAAAPTAGLHFTEEILQQLKDKGVQIEFITLHVGLGTFRPVSADEVEEHNMHAEFYQMSEETAAALNKVRENGGRIISVGTTSTRTLETIAGEHDGQFKASSGWTSIFIYPGYEFKAIDGMITNFHLPKSSLIMLVSALAGRENILRAYNHAVEEEYRFFSFGDAMLII", "soluble on expression in E. coli": "soluble"},
      {"sequence": "MQQLLAPVHAFLRCETPQTWIDVARASASLDELLIDHCNCELKAAQTAMFLLRRYALNAESGQSLLAWAKPYEEFVYHKDRDIEQFLARDVKKNELVAVLQPNQHFSFAQDLIPPLIRLIKEEFHHFEQVLELMHARQIPYRNIRAGRYAKGMMSHVTTHEKNILRDKLIVGAYIEARSCERFAKLAPYLDAELSKFYVSLLRSEARHFEDYLKLAQLVSSEDISERVAYFGEREAELIMAPDDEFHFHSGQPQAIKYSYA", "soluble on expression in E. coli": "not soluble"},
      {"sequence": "MEKEKSKTESLKKDEIDEANSESSKVPLAIDPEEAKLPNAGGKSEHMVVNFTSKRMAIKVRCGNALFRVEPTHMIIEPNKCRQLTINRMPGPIQKDKAIVQYLQIENDVQDPKTAFKAADSAGTKIPHLKIKLVAGASGGRQMSREVVDE", "soluble on expression in E. coli": "not soluble"},
      {"sequence": "MNAIILAAGFGSRLMPLTKDQPKCMVEYKNKKIIDYEIEALKSAGINEIAVVGGYLNDVLKNYLNKYDIEHFFINSKYDKTNMVHTFFCAKDFMLKCIEEKQDLIISYADIVYFQDCVQKLINAKEELAIVVDKSWCKLWSKRFANPLEDAETLKMTNGYIIELGKKANAYDEIEAQYIGLFKFSYQFLSEVIAFYEMLDRDILYDNKNFENMYMTSFLQALIEKYNNAKAVEIDGNWCEIDFMSDLEVQIEKLEHHHHHH", "soluble on expression in E. coli": "not soluble"},
      {"sequence": "SGEKSENCGVPEDLLNGLKVTDTQEAECAGPPVPDPKNQHSQSKLLRDDEAHLQEDQGEEECFHDCSASFEEEPGADKVENKSNEDVNSSELDEEYLIELKKNMSDEEKQKRREESTRLKEEGNEQFKKGDYIEAESSYSRALEMCPSCFQKERSILFSNRAAARMKQDKKEMAINDCSKAIQLNPSYIRAILRRAELYEKTDKLDEALEDYKSILEKDPSIHQAREACMRLPKQIEERNERLKEEMLGKLKDLGNLVLRPFGLSTENFQIKQDSSTGSYSINFVQNPNNNR", "soluble on expression in E. coli": "soluble"},
      {"sequence": "MASCHEPSAFKSLCAHPSTLTATFDVSPYSSAFHLPIHPALLSNTHLLHLNTYNPTTYESTERLFEQNNNNSEKAESCSSRDSSHDSSSPTSTGGSSRDNVIVRNELKRKKDQVKDVAYWERRRKNNDAAKRSRDQRRMKEDEMAHRATSLERENMLLRVELDQLRAETDKLRALILTTPTTSISIPIPLQSLPLLTAQTAPASSVITTSQMYAPLPLKIPKTPSPSLLRSTVLVSNSSKT", "soluble on expression in E. coli": "not soluble"},
      {"sequence": "MGSDKIHHHHHHMSRAPDTWILTADCPSMLGTVDVVTRYLFEQRCYVTEHHSFDDRQSGRFFIRVEFRQPDDFDEAGFRAGLAERSEAFGMAFELTAPNHRPKVVIMVSKADHCLNDLLYRQRIGQLGMDVVAVVSNHPDLEPLAHWHKIPYYHFALDPKDKPGQERKVLQVIEETGAELVILARYMQVLSPELCRRLDGWAINIHHSLLPGFKGAKPYHQAYNKGVKMVGATAHYINNDLDEGPIIAQGVEVVDHSHYPEDLIAKGRDIECLTLARAVGYHIERRVFLNANRTVVL", "soluble on expression in E. coli": "not soluble"},
      {"sequence": "EQPKCNVRVVEMTYTTVGVVGEATRASGVVLVPDGPQCPGPYPVLGWGRDGQTFRRSEQAKSIISAKGDDPLVTRLASQGYVVVGTDYLGLGGSNYPYHPYLHANSEASALIDALRASRTVLQHLNTPLSNKLMLSGFSQGGHTAMATQREIEAHLSNE", "soluble on expression in E. coli": "not soluble"},
      {"sequence": "MSLAKELLIKNACVYDPLNGIEGEVMDIGVKDGKIVDPSEVDESKAKVIDAEGRLTMAGGVDIHAHVAGPKVNVGRIFRPEDSRRLQVAIKKLGTRSGTGFSVPSTTITGYLYAQMGYTTVMEAATPPLLTRHTHEEIRDTPILDEGAYTLMANNWILYEYIKEGELEKAAAYAAWLLRATKGFVIKMVNPGGTEAWGWGENVHSLDDPVPYFEITPAEIYQNYVKINEMLGLPHSIHIHPNLLGEPGNYEITTDSWDVIKKTGVEPNPEIGEREQVVHNTHVQFHSYGGDSWPTFESKAEEVAKYLNKNDHVTVDLGAVTLDETTTMTADGPLEWELQELTGFKWANYDVELETGSGVVPFIYSPKNPVHSVQWAIGLEIALLTENPWQVVISTDHPNAGPFIRYPRIIAWLMSEPYREEWIENVHPWVGQRAAIATIDREYTWTDITITTRAAPAKMLGLSDRIGHLGEGAYAHIAIYDIKPDEVDPSRDYEEVEKAMEQAWLVVKDGEIVVQEGVVVNEPVGRTYWVDVKVPEDLLEEVKKDLETKFRRYYSVNLGNYQVQDVYIPKEERIVIDARDRLSEGHHHHHH", "soluble on expression in E. coli": "soluble"},
      {"sequence": "MGHHHHHHSHMTKIIPVASGKGGVGKTSFVANVGYKLSSLGKTVILVDLDLGGSNLHTCLGVKNKGVGIGSFINKKSKSFSDLVCKTSYDKLYLIPGDALYTGTANLPFSIKKKIIESIQKDLIADFIFLDLGSGTSYNTIDFYLASYSGVIVTIPETPSILNAYSFLKNALYRLLYLGFP", "soluble on expression in E. coli": "not soluble"},
      {"sequence": "MKALRGMISEKGGWNLTVNNDNNTVVSSGGALDLSSGSKNLKIVKDGKKNNVTFDVARDLTLKSIKLDGVTLNETGLFIANGPQITASGINAGSQKITGVAEGTDANDAVNFGQLKKIETEVKEQVAASGFVKQDSDTKYLTIGKDTDGDTINIANNKSDKRT", "soluble on expression in E. coli": "soluble"},
      {"sequence": "MGSDKIHHHHHHMDEVSVWRRAWTYVVTTLAQSLPNRCLLCHQTVIEGSGVCSLCLQRCLYHGPVCLGCGRSLVNDGAFCGACRVLGALPVIAPCSYHQGLGASIAAIKYQGQFAALDVLCRALMARVTQLTEEGEIPPVSLLLPVPLHPKRLKTRGFNQAYEIALLLSKLSGIPLCDDLLRRRRDTQPQAGLTGKARRKNLLGAFELTGSCHQGSVALVDDVVTTGSTANEIATMLQLQGVRVQVWCLARAEAPGLLDTFS", "soluble on expression in E. coli": "not soluble"},
      {"sequence": "MGSDKIHHHHHHMHCGIDYGTSNSSLGIVKDGKVVQAELERNSVYLPSAIYRAFPEHELNDDIASRSIRQQLGSAQGLLYGSEAIEAYVRHPGDGLFMKSPKVFLGSDLSKDQMDFFQIVIAKMMTHILERAREFYGQELRQAVIGRPIRYHGIRGEEGDKQALAIMEHAAAGAGLEEVVFMYEPLAAALDYEQCLDRDEVLLVVDVGGGTTDCSVVKVGPSYRDKRERSDDLLAYSGNRIGGVDLDINLGWHTIMPLFGRGTDELHNKAFDAITVNSIPSQQAFYSRFEMPVHAQADTVRERLYRVWLDKLSSHLVRSAELAKIELSRRTSHVLELGYVEDGLEVHVSREDFRQAIARSAEKIRQVIDDARQASASRPDKIYLTGGSAVSPVIQQVIREVVGDAVPFVSGNMHGSVACGLSVFANRHFA", "soluble on expression in E. coli": "not soluble"}
    ]}
  ]
}
